Measured values published in patent US20260062456A1 (ALPINE IMMUNE SCIENCES, published 2026).
Substitutions are numbered along the chain they refer to. Names may count otherwise.

B1: variant PD-L1 ECD-Fc E27D, N45D, T183A, I188V (Fc fusion, not shown: a dimerising Fc or GST)
chain: FTVTVPKDLYVVEYGSNMTIECKFPVDKQLDLAALIVYWEMEDKDIIQFVHGEEDLKVQHSSYRQRARLLKDQLSLGNAALQITDVKLQDAGVYRCMISYGGADYKRITVKVNAPYNKINQRILVVDPVTSEHELTCQAEGYPKAEVIWTSSDHQVLSGKTTTTNSKREEKLFNVTSTLRINATTNEVFYCTFRRLDPEENHTAELVIPELPLAHPPNER
B2: variant PD-L1 ECD-Fc K28R, N45D, V129D, T163N, R195T (Fc fusion, not shown: a dimerising Fc or GST)
chain: B1 chain with D27E, K28R, V129D, T163N, A183T, V188I, R195T
B3: variant PD-L1 ECD-Fc M41K, D43G, K44E, N45D, R195G, N201D (Fc fusion, not shown: a dimerising Fc or GST)
chain: B1 chain with D27E, M41K, D43G, K44E, A183T, V188I, R195G, N201D
B4: variant PD-L1 ECD-Fc I98T, F173Y, L196S (Fc fusion, not shown: a dimerising Fc or GST)
chain: B1 chain with D27E, D45N, I98T, F173Y, A183T, V188I, L196S
B5: variant PD-L1 ECD-Fc N45D, Q89R, I98V (Fc fusion, not shown: a dimerising Fc or GST)
chain: B1 chain with D27E, Q89R, I98V, A183T, V188I
B6: variant PD-L1 ECD-Fc K23N, N45D, S75P, N120S (Fc fusion, not shown: a dimerising Fc or GST)
chain: B1 chain with K23N, D27E, S75P, N120S, A183T, V188I
B7: variant PD-L1 ECD-Fc N45D, E134G, L213P (Fc fusion, not shown: a dimerising Fc or GST)
chain: B1 chain with D27E, E134G, A183T, V188I, L213P
B8: variant PD-L1 ECD-Fc N45D, K111T, R195G (Fc fusion, not shown: a dimerising Fc or GST)
chain: B1 chain with D27E, K111T, A183T, V188I, R195G
B9: variant PD-L1 ECD-Fc N45D, V50A, I119T, K144E (Fc fusion, not shown: a dimerising Fc or GST)
chain: B1 chain with D27E, V50A, I119T, K144E, A183T, V188I
B10: variant PD-L1 ECD-Fc N45D, N113Y, R195S (Fc fusion, not shown: a dimerising Fc or GST)
chain: B1 chain with D27E, N113Y, A183T, V188I, R195S
B11: variant PD-L1 ECD-Fc N45D, K111T, T183A, I188V (Fc fusion, not shown: a dimerising Fc or GST)
chain: B1 chain with D27E, K111T
B12: variant PD-L1 ECD-Fc N45D, R68L, F173L, D197G, P198S (Fc fusion, not shown: a dimerising Fc or GST)
chain: B1 chain with D27E, R68L, F173L, A183T, V188I, D197G, P198S
B13: variant PD-L1 ECD-Fc N45D, S99G, C137R, V207A (Fc fusion, not shown: a dimerising Fc or GST)
chain: B1 chain with D27E, S99G, C137R, A183T, V188I, V207A
B14: variant PD-L1 ECD-Fc N45D, S75P, P198S (Fc fusion, not shown: a dimerising Fc or GST)
chain: B1 chain with D27E, S75P, A183T, V188I, P198S
B15: variant PD-L1 ECD-Fc M41K, D43G, N45D, R64S, S99G (Fc fusion, not shown: a dimerising Fc or GST)
chain: B1 chain with D27E, M41K, D43G, R64S, S99G, A183T, V188I
B16: variant PD-L1 ECD-Fc N45D, I148V, R195G, N201D (Fc fusion, not shown: a dimerising Fc or GST)
chain: B1 chain with D27E, I148V, A183T, V188I, R195G, N201D
B17: variant PD-L1 ECD-Fc N45D, T163I, K167R, R195G (Fc fusion, not shown: a dimerising Fc or GST)
chain: B1 chain with D27E, T163I, K167R, A183T, V188I, R195G
B18: variant PD-L1 ECD-Fc N45D, V50A, I148V, R195G, N201D (Fc fusion, not shown: a dimerising Fc or GST)
chain: B1 chain with D27E, V50A, I148V, A183T, V188I, R195G, N201D
B19: variant PD-L1 ECD-Fc N45D, N165Y, E170G (Fc fusion, not shown: a dimerising Fc or GST)
chain: B1 chain with D27E, N165Y, E170G, A183T, V188I
B20: variant PD-L1 ECD-Fc N45D, G102D, R194W, R195G (Fc fusion, not shown: a dimerising Fc or GST)
chain: B1 chain with D27E, G102D, A183T, V188I, R194W, R195G
B21: variant PD-L1 ECD-Fc N45D, G52V, Q121L, P198S (Fc fusion, not shown: a dimerising Fc or GST)
chain: B1 chain with D27E, G52V, Q121L, A183T, V188I, P198S
B22: variant PD-L1 ECD-Fc N45D, T183A, T192S, R194G (Fc fusion, not shown: a dimerising Fc or GST)
chain: B1 chain with D27E, V188I, T192S, R194G
B23: variant PD-L1 ECD-Fc N45D, V50A, L124S, K144E, L179P, R195G (Fc fusion, not shown: a dimerising Fc or GST)
chain: B1 chain with D27E, V50A, L124S, K144E, L179P, A183T, V188I, R195G
B24: variant PD-L1 ECD-Fc N45D, I148V, R195G (Fc fusion, not shown: a dimerising Fc or GST)
chain: B1 chain with D27E, I148V, A183T, V188I, R195G
B25: variant PD-L1 ECD-Fc K23N, N45D, Q73R, T163I (Fc fusion, not shown: a dimerising Fc or GST)
chain: B1 chain with K23N, D27E, Q73R, T163I, A183T, V188I
B26: variant PD-L1 ECD-Fc V11E, N45D, T130A, P198T (Fc fusion, not shown: a dimerising Fc or GST)
chain: B1 chain with V11E, D27E, T130A, A183T, V188I, P198T
B27: variant PD-L1 ECD-Fc M41K, D43G, N45D, R64S, R195G (Fc fusion, not shown: a dimerising Fc or GST)
chain: B1 chain with D27E, M41K, D43G, R64S, A183T, V188I, R195G
B28: variant PD-L1 ECD-Fc K28E, N45D, W149R, S158G, P198T (Fc fusion, not shown: a dimerising Fc or GST)
chain: B1 chain with D27E, K28E, W149R, S158G, A183T, V188I, P198T
B29: variant PD-L1 ECD-Fc N45D, S131F, P198S (Fc fusion, not shown: a dimerising Fc or GST)
chain: B1 chain with D27E, S131F, A183T, V188I, P198S
B30: variant PD-L1 ECD-Fc N45D, F173I, S177C (Fc fusion, not shown: a dimerising Fc or GST)
chain: B1 chain with D27E, F173I, S177C, A183T, V188I
B31: variant PD-L1 ECD-Fc N45D, V50A, R195T (Fc fusion, not shown: a dimerising Fc or GST)
chain: B1 chain with D27E, V50A, A183T, V188I, R195T

Target: human PD-1 stably expressed on Jurkat/IL-2 reporter cells (Jurkat/PD-1 cells) (human, UniProt Q15116 25-288)
Sequence (Q15116 25-288): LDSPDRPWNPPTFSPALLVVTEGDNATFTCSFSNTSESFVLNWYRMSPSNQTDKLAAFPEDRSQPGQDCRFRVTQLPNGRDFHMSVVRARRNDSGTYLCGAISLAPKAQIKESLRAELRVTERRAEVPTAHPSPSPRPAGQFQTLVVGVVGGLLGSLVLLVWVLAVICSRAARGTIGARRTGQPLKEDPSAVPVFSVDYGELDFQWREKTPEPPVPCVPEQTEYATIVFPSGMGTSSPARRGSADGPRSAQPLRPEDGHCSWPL
Assay: flow cytometry, Jurkat/PD-1 cells

First: B1
Second: B2
The “Fold Increase over WT PD-L1 ECD-Fc” value of the first is lower: 26.6 fold for the first, 27.4 fold for the second.

Compared with B3, B4 is lower in “Fold Increase over WT PD-L1 ECD-Fc” value: 28.9 fold for the first, 0 fold for the second.

Going from B5 to B6, the “Fold Increase over WT PD-L1 ECD-Fc” value rises from 18.1 fold to 26.4 fold.

Going from B7 to B8, the “Fold Increase over WT PD-L1 ECD-Fc” value rises from 0.5 fold to 13.1 fold.

Going from B9 to B10, the “Fold Increase over WT PD-L1 ECD-Fc” value rises from 6.8 fold to 22.4 fold.

Compared with B11, B12 is lower in “Fold Increase over WT PD-L1 ECD-Fc” value: 21.7 fold for the first, 11.8 fold for the second.

Compared with B13, B14 is higher in “Fold Increase over WT PD-L1 ECD-Fc” value: 0.2 fold for the first, 25.9 fold for the second.

First: B15
Second: B16
The “Fold Increase over WT PD-L1 ECD-Fc” value of the first is higher: 26.9 fold for the first, 26.1 fold for the second.

First: B17
Second: B18
The “Fold Increase over WT PD-L1 ECD-Fc” value of the first is higher: 26.7 fold for the first, 26.2 fold for the second.

Compared with B19, B20 is lower in “Fold Increase over WT PD-L1 ECD-Fc” value: 17.8 fold for the first, 2.7 fold for the second.

Going from B21 to B22, the “Fold Increase over WT PD-L1 ECD-Fc” value rises from 0.1 fold to 0.3 fold.

Compared with B23, B24 is higher in “Fold Increase over WT PD-L1 ECD-Fc” value: 3.6 fold for the first, 21.8 fold for the second.

Compared with B25, B26 is lower in “Fold Increase over WT PD-L1 ECD-Fc” value: 27.8 fold for the first, 27.4 fold for the second.

First: B27
Second: B28
The “Fold Increase over WT PD-L1 ECD-Fc” value of the first is higher: 27.4 fold for the first, 0.1 fold for the second.

Compared with B29, B30 is lower in “Fold Increase over WT PD-L1 ECD-Fc” value: 23.2 fold for the first, 0.4 fold for the second.

In the case of B31, the “Fold Increase over WT PD-L1 ECD-Fc” value is reported as 28.3 fold.

First: B1
Second: B2
The “MFI at 20 nM conc.” value of the first is lower: 133000 MFI for the first, 137000 MFI for the second.

Going from B3 to B4, the “MFI at 20 nM conc.” value falls from 145000 MFI to 236 MFI.

Going from B5 to B6, the “MFI at 20 nM conc.” value rises from 90500 MFI to 132000 MFI.

Going from B7 to B8, the “MFI at 20 nM conc.” value rises from 2260 MFI to 65700 MFI.

Going from B9 to B10, the “MFI at 20 nM conc.” value rises from 34200 MFI to 112000 MFI.

Going from B11 to B12, the “MFI at 20 nM conc.” value falls from 109000 MFI to 59300 MFI.

First: B13
Second: B14
The “MFI at 20 nM conc.” value of the first is lower: 834 MFI for the first, 130000 MFI for the second.

Going from B15 to B16, the “MFI at 20 nM conc.” value falls from 135000 MFI to 131000 MFI.

Going from B17 to B18, the “MFI at 20 nM conc.” value falls from 134000 MFI to 131000 MFI.

Compared with B19, B20 is lower in “MFI at 20 nM conc.” value: 89000 MFI for the first, 13400 MFI for the second.

First: B21
Second: B22
The “MFI at 20 nM conc.” value of the first is lower: 296 MFI for the first, 1350 MFI for the second.

First: B23
Second: B24
The “MFI at 20 nM conc.” value of the first is lower: 18200 MFI for the first, 109000 MFI for the second.

First: B25
Second: B26
The “MFI at 20 nM conc.” value of the first is higher: 139000 MFI for the first, 137000 MFI for the second.

First: B27
Second: B28
The “MFI at 20 nM conc.” value of the first is higher: 137000 MFI for the first, 691 MFI for the second.

First: B29
Second: B30
The “MFI at 20 nM conc.” value of the first is higher: 116000 MFI for the first, 2200 MFI for the second.

With B31 the “MFI at 20 nM conc.” value was 142000 MFI.
